Values of other authors as cited in patent US20080160019A1, “SEQUENTIAL COMBINATION THERAPY” (DYAX CORP., priority 2006, published 2008).

Target: Tie1 (Homo sapiens, UniProt P35590)
Sequence (P35590 22-1138): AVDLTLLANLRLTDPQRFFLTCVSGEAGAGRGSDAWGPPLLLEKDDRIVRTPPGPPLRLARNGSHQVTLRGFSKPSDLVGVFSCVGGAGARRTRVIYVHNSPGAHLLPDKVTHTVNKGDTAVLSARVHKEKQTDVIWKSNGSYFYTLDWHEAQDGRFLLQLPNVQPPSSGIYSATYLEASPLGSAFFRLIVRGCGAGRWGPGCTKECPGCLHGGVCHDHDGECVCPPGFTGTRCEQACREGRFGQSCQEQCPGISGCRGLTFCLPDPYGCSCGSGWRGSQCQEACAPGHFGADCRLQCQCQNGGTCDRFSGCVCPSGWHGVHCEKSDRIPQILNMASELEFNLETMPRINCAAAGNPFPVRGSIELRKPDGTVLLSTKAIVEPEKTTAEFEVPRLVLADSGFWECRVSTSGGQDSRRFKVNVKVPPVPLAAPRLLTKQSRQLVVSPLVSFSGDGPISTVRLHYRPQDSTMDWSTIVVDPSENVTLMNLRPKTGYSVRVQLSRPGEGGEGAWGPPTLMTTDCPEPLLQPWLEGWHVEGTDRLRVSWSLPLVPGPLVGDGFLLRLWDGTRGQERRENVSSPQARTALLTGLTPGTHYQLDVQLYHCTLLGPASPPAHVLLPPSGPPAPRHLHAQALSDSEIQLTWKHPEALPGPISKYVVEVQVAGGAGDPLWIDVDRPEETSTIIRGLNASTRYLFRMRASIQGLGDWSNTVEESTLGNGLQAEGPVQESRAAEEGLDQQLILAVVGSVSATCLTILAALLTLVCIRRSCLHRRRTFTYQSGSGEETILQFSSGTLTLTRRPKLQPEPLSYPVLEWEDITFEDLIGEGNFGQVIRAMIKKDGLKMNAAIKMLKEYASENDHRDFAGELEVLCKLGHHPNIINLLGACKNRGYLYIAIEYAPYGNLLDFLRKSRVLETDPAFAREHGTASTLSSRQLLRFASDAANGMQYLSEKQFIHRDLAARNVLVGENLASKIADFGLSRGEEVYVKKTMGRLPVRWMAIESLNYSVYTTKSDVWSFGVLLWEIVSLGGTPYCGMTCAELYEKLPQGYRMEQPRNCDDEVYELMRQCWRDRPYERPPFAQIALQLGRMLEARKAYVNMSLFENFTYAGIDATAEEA

B1: M0044-B08: Tie1 ectodomain-binding antibody, variable domains SEQ ID NO:2 and 4 (antibody, listed as Homo sapiens, V domains shown)
VL: QDIQMTQSPSFLSASVGDRVTISCRASQYISIYLNWYQQRPGEAPKLLINAASSLQSGDPSRFSGSGSGTDFTLTINSLQPDDFATYYCQQYKSYPLTFGEGTKVEIK
VH: EVQLLESGGGLVQPGGSLRLSCAASGFTFSAYGMGWVRQAPGKGLEWVSVISPSGGQTSYADSVKGRFTISRDNSKNTLYLQMNSLRAEDTALYYCAGGDRYGPLHYWGQGTLVTVSS
induce: Tie1 tyrosine phosphorylation | Tie complex formation | down modulation of Tie1 from the cell surface
